This note sets out measurements from patent publication US20160160255A1, “Methods and Materials for Producing 6-Carbon Monomers” (INVISTA North America S.á.r.l., priority 2014, published 2016).

Holding throughout (assay type): biochemical
The nature of data set [1]: ω-transaminase activity, 6-aminohexanoate to adipate semialdehyde (reverse direction). Conditions: cell free extract, 10 mM 6-aminohexanoate, 10 mM pyruvate, pH 7.5, 25° C., 24 h, RP-HPLC. The method, then: (§1) A nucleotide sequence encoding a His-tag was added to the nucleic acid sequences from Chromobacterium violaceum, Pseudomonas aeruginosa, Pseudomonas syringae, Rhodobacter sphaeroides, and Vibrio fluvialis encoding the ω-transaminases of SEQ ID NOs: 7, 8, 9, 10 and 12, respectively (see FIG. 6) such that N-terminal HIS tagged ω-transaminases could be produced. Each of the resulting modified genes was cloned into a pET21a expression vector under control of the T7 promoter and each expression vector was transformed into a BL21[DE3] E. coli host. The resulting recombinant E. coli strains were cultivated at 37° C. in a 250 mL shake flask culture containing 50 mL LB media and antibiotic selection pressure, with shaking at 230 rpm. Each culture was induced overnight at 16° C. using 1 mM IPTG.
(§2) The pellet from each induced shake flask culture was harvested via centrifugation. Each pellet was resuspended and lysed via sonication. The cell debris was separated from the supernatant via centrifugation and the cell free extract was used immediately in enzyme activity assays.
Enzyme activity assays in the reverse direction (i.e., 6-aminohexanoate to adipate semialdehyde) were performed in a buffer composed of a final concentration of 50 mM HEPES buffer (pH=7.5), 10 mM 6-aminohexanoate, 10 mM pyruvate and 100 μM pyridoxyl 5′ phosphate. Each enzyme activity assay reaction was initiated by adding cell free extract of the ω-transaminase gene product or the empty vector control to the assay buffer containing the 6-aminohexanoate and incubated at 25° C. for 24 h, with shaking at 250 rpm. The formation of L-alanine from pyruvate was quantified via RP-HPLC.

The nature of data set [2]: ω-transaminase activity, adipate semialdehyde to 6-aminohexanoate (forward direction). Particulars: cell free extract, 10 mM adipate semialdehyde, 10 mM L-alanine, pH 7.5, 25° C., 4 h, RP-HPLC. As for the experimental part:
as §1, §2
Enzyme activity in the forward direction (i.e., adipate semialdehyde to 6-aminohexanoate) was confirmed for the transaminases of SEQ ID NO 7, SEQ ID NO 8, SEQ ID NO 9, SEQ ID NO 10 and SEQ ID NO 12. Enzyme activity assays were performed in a buffer composed of a final concentration of 50 mM HEPES buffer (pH=7.5), 10 mM adipate semialdehyde, 10 mM L-alanine and 100 μM pyridoxyl 5′ phosphate. Each enzyme activity assay reaction was initiated by adding a cell free extract of the ω-transaminase gene product or the empty vector control to the assay buffer containing the adipate semialdehyde and incubated at 25° C. for 4 h, with shaking at 250 rpm. The formation of pyruvate was quantified via RP-HPLC.

Data set [3] in a line: carboxylate reductase activity, adipate semialdehyde to hexanedial. Conditions: purified enzyme with sfp phosphopantetheine transferase, 2 mM adipate semialdehyde, pH 7.5, room temperature, 20 min. The method, then:
The N-terminal His-tagged carboxylate reductase of SEQ ID NO 6 (see Example 2 and FIG. 6) was assayed using adipate semialdehyde as substrate. The enzyme activity assay was performed in triplicate in a buffer composed of a final concentration of 50 mM HEPES buffer (pH=7.5), 2 mM adipate semialdehyde, 10 mM MgCl2, 1 mM ATP and 1 mM NADPH. The enzyme activity assay reaction was initiated by adding purified carboxylate reductase and phosphopantetheine transferase or the empty vector control to the assay buffer containing the adipate semialdehyde and then incubated at room temperature for 20 min. The consumption of NADPH was monitored by absorbance at 340 nm.

“SEQ ID NO 10: Rhodobacter sphaeroides ω-transaminase, Genbank Accession No. ABA81135.1, N-terminal His-tagged”: the “acceptance of 6-aminohexanoate as substrate (conversion of pyruvate to L-alanine vs empty vector control)” value in data set [1] was “accepted 6-aminohexanote as substrate”. Further, the “acceptance of adipate semialdehyde as substrate (conversion of L-alanine to pyruvate vs empty vector control)” value in data set [2] was “accepted adipate semialdehyde as substrate”.

B1: SEQ ID NO 9: Pseudomonas syringae ω-transaminase, Genbank Accession No. AAY39893.1, N-terminal His-tagged (protein, listed as Pseudomonas syringae)
chain: MSANNPQTLEWQALSSEHHLAPFSDYKQLKEKGPRIITRAEGVYLWDSEGNKILDGMSGLWCVAIGYGREELADAASKQMRELPYYNLFFQTAHPPVLELAKAISDIAPEGMNHVFFTGSGSEGNDTMLRMVRHYWALKGQPNKKTIISRVNGYHGSTVAGASLGGMTYMHEQGDLPIPGVVHIPQPYWFGEGGDMTPDEFGIWAAEQLEKKILELGVENVGAFIAEPIQGAGGVIVPPDSYWPKIKEILSRYDILFAADEVICGFGRTSEWFGSDFYGLRPDMMTIAKGLTSGYVPMGGLIVRDEIVAVLNEGGDFNHGFTYSGHPVAAAVALENIRILREEKIVERVRSETAPYLQKRLRELSDHPLVGEVRGVGLLGAIELVKDKTTRERYTDKGAGMICRTFCFDNGLIMRAVGDTMIIAPPLVISFAQIDELVEKARTCLDLTLAVLQG
modifications: N-terminal His tag
With B1, the “acceptance of 6-aminohexanoate as substrate (conversion of pyruvate to L-alanine vs empty vector control)” value in data set [1] is reported as “accepted 6-aminohexanote as substrate”. In addition, the “acceptance of adipate semialdehyde as substrate (conversion of L-alanine to pyruvate vs empty vector control)” value in data set [2] was “accepted adipate semialdehyde as substrate”.

B2: SEQ ID NO 12: Vibrio fluvialis ω-transaminase, Genbank Accession No. AEA39183.1, N-terminal His-tagged (protein, listed as Vibrio fluvialis)
chain: MNKPQSWEARAETYSLYGFTDMPSLHQRGTVVVTHGEGPYIVDVNGRRYLDANSGLWNMVAGFDHKGLIDAAKAQYERFPGYHAFFGRMSDQTVMLSEKLVEVSPFDSGRVFYTNSGSEANDTMVKMLWFLHAAEGKPQKRKILTRWNAYHGVTAVSASMTGKPYNSVFGLPLPGFVHLTCPHYWRYGEEGETEEQFVARLARELEETIQREGADTIAGFFAEPVMGAGGVIPPAKGYFQAILPILRKYDIPVISDEVICGFGRTGNTWGCVTYDFTPDAIISSKNLTAGFFPMGAVILGPELSKRLETAIEAIEEFPHGFTASGHPVGCAIALKAIDVVMNEGLAENVRRLAPRFEERLKHIAERPNIGEYRGIGFMWALEAVKDKASKTPFDGNLSVSERIANTCTDLGLICRPLGQSVVLCPPFILTEAQMDEMFDKLEKALDKVFAEVA
modifications: N-terminal His tag
Consider B2, for which the “acceptance of 6-aminohexanoate as substrate (conversion of pyruvate to L-alanine vs empty vector control)” value in data set [1] was “accepted 6-aminohexanote as substrate”. Besides, the “acceptance of adipate semialdehyde as substrate (conversion of L-alanine to pyruvate vs empty vector control)” value in data set [2] is “accepted adipate semialdehyde as substrate”.

B3: SEQ ID NO 7: Chromobacterium violaceum ω-transaminase, Genbank Accession No. AAQ59697.1, N-terminal His-tagged (protein, listed as Chromobacterium violaceum)
chain: MQKQRTTSQWRELDAAHHLHPFTDTASLNQAGARVMTRGEGVYLWDSEGNKIIDGMAGLWCVNVGYGRKDFAEAARRQMEELPFYNTFFKTTHPAVVELSSLLAEVTPAGFDRVFYTNSGSESVDTMIRMVRRYWDVQGKPEKKTLIGRWNGYHGSTIGGASLGGMKYMHEQGDLPIPGMAHIEQPWWYKHGKDMTPDEFGVVAARWLEEKILEIGADKVAAFVGEPIQGAGGVIVPPATYWPEIERICRKYDVLLVADEVICGFGRTGEWFGHQHFGFQPDLFTAAKGLSSGYLPIGAVFVGKRVAEGLIAGGDFNHGFTYSGHPVCAAVAHANVAALRDEGIVQRVKDDIGPYMQKRWRETFSRFEHVDDVRGVGMVQAFTLVKNKAKRELFPDFGEIGTLCRDIFFRNNLIMRACGDHIVSAPPLVMTRAEVDEMLAVAERCLEEFEQTLKARGLA
modifications: N-terminal His tag
B3: in data set [1], the “acceptance of 6-aminohexanoate as substrate (conversion of pyruvate to L-alanine vs empty vector control)” value was “accepted 6-aminohexanote as substrate”. For the same molecule, in data set [2], the “acceptance of adipate semialdehyde as substrate (conversion of L-alanine to pyruvate vs empty vector control)” value is listed as “accepted adipate semialdehyde as substrate”.

B4: SEQ ID NO 8: Pseudomonas aeruginosa ω-transaminase, Genbank Accession No. AAG08191.1, N-terminal His-tagged (protein, listed as Pseudomonas aeruginosa)
chain: MNARLHATSPLGDADLVRADQAHYMHGYHVFDDHRVNGSLNIAAGDGAYIYDTAGNRYLDAVGGMWCTNIGLGREEMARTVAEQTRLLAYSNPFCDMANPRAIELCRKLAELAPGDLDHVFLTTGGSTAVDTAIRLMHYYQNCRGKRAKKHVITRINAYHGSTFLGMSLGGKSADRPAEFDFLDERIHHLACPYYYRAPEGLGEAEFLDGLVDEFERKILELGADRVGAFISEPVFGSGGVIVPPAGYHRRMWELCQRYDVLYISDEVVTSFGRLGHFFASQAVFGVQPDIILTAKGLTSGYQPLGACIFSRRIWEVIAEPDKGRCFSHGFTYSGHPVACAAALKNIEIIEREGLLAHADEVGRYFEERLQSLRDLPIVGDVRGMRFMACVEFVADKASKALFPESLNIGEWVHLRAQKRGLLVRPIVHLNVMSPPLILTREQVDTVVRVLRESIEETVEDLVRAGHR
modifications: N-terminal His tag
With B4, the “acceptance of adipate semialdehyde as substrate (conversion of L-alanine to pyruvate vs empty vector control)” value in data set [2] is “accepted adipate semialdehyde as substrate”.

B5: SEQ ID NO 6: Segniliparus rotundus carboxylate reductase, Genbank Accession No. ADG98140.1, N-terminal His-tagged (protein, listed as Segniliparus rotundus)
chain: MTQSHTQGPQASAAHSRLARRAAELLATDPQAAATLPDPEVVRQATRPGLRLAERVDAILSGYADRPALGQRSFQTVKDPITGRSSVELLPTFDTITYRELRERATAIASDLAHHPQAPAKPGDFLASIGFISVDYVAIDIAGVFAGLTAVPLQTGATLATLTAITAETAPTLFAASIEHLPTAVDAVLATPSVRRLLVFDYRAGSDEDREAVEAAKRKIADAGSSVLVDVLDEVIARGKSAPKAPLPPATDAGDDSLSLLIYTSGSTGTPKGAMYPERNVAHFWGGVWAAAFDEDAAPPVPAINITFLPLSHVASRLSLMPTLARGGLMHFVAKSDLSTLFEDLKLARPTNLFLVPRVVEMLYQHYQSELDRRGVQDGTREAEAVKDDLRTGLLGGRILTAGFGSAPLSAELAGFIESLLQIHLVDGYGSTEAGPVWRDGYLVKPPVTDYKLIDVPELGYFSTDSPHPRGELAIKTQTILPGYYKRPETTAEVFDEDGFYLTGDVVAQIGPEQFAYVDRRKNVLKLSQGEFVTLAKLEAAYSSSPLVRQLFVYGSSERSYLLAVIVPTPDALKKFGVGEAAKAALGESLQKIARDEGLQSYEVPRDFIIETDPFTVENGLLSDARKSLRPKLKEHYGERLEAMYKELADGQANELRDIRRGVQQRPTLETVRRAAAAMLGASAAEIKPDAHFTDLGGDSLSALTFSNFLHDLFEVDVPVGVIVSAANTLGSVAEHIDAQLAGGRARPTFATVHGKGSTTIKASDLTLDKFIDEQTLEAAKHLPKPADPPRTVLLTGANGWLGRFLALEWLERLAPAGGKLITIVRGKDAAQAKARLDAAYESGDPKLAGHYQDLAATTLEVLAGDFSEPRLGLDEATWNRLADEVDFISHPGALVNHVLPYNQLFGPNVAGVAEIIKLAITTRIKPVTYLSTVAVAAGVEPSALDEDGDIRTVSAERSVDEGYANGYGNSKWGGEVLLREAHDRTGLPVRVFRSDMILAHQKYTGQVNATDQFTRLVQSLLATGLAPKSFYELDAQGNRQRAHYDGIPVDFTAESITTLGGDGLEGYRSYNVFNPHRDGVGLDEFVDWLIEAGHPITRIDDYDQWLSRFETSLRGLPESKRQASVLPLLHAFARPGPAVDGSPFRNTVFRTDVQKAKIGAEHDIPHLGKALVLKYADDIKQLGLL
modifications: N-terminal His tag
In the case of B5, the “acceptance of adipate semialdehyde as substrate (NADPH consumption, absorbance at 340 nm, vs empty vector control)” value in data set [3] is “accepted adipate semialdehyde as substrate”.
